Data published in patent US20220363757A1 (SYMPHOGEN A S, published 2022).
Numbering of substitutions follows the chain as printed.

T1: human LAG-3 domain 1-2 Fc fusion, point mutation #57 R113A (human, UniProt P18627 23-266)
T1 construct: not shown: human IgG1 Fc, AA P101-K330
T1 sequence: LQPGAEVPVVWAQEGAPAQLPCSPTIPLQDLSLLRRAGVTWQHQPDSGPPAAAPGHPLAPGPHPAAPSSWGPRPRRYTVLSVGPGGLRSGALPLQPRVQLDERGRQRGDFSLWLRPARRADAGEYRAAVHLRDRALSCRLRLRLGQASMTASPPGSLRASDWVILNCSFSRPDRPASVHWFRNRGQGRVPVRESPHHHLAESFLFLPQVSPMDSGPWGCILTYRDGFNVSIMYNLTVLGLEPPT

T2: human LAG-3 domain 1-2 Fc fusion, point mutation #60 P118A (human, UniProt P18627 23-266)
T2 construct: not shown: human IgG1 Fc, AA P101-K330
T2 sequence: T1 sequence with A91R, P96A

T3: human LAG-3 domain 1-2 Fc fusion, point mutation #73 R137A (human, UniProt P18627 23-266)
T3 construct: not shown: human IgG1 Fc, AA P101-K330
T3 sequence: T1 sequence with A91R, R115A

T4: human LAG-3 domain 1-2 Fc fusion, point mutation #75 R141A (human, UniProt P18627 23-266)
T4 construct: not shown: human IgG1 Fc, AA P101-K330
T4 sequence: T1 sequence with A91R, R119A

T5: human LAG-3 domain 1-2 Fc fusion, point mutation #8 Q51A (human, UniProt P18627 23-266)
T5 construct: not shown: human IgG1 Fc, AA P101-K330
T5 sequence: T1 sequence with Q29A, A91R

T6: human LAG-3 domain 1-2 Fc fusion, point mutation #13 R58A (human, UniProt P18627 23-266)
T6 construct: not shown: human IgG1 Fc, AA P101-K330
T6 sequence: T1 sequence with R36A, A91R

T7: human LAG-3 domain 1-2 Fc fusion, point mutation #16 H65A (human, UniProt P18627 23-266)
T7 construct: not shown: human IgG1 Fc, AA P101-K330
T7 sequence: T1 sequence with H43A, A91R

T8: human LAG-3 domain 1-2 Fc fusion, point mutation #40 G93A (human, UniProt P18627 23-266)
T8 construct: not shown: human IgG1 Fc, AA P101-K330
T8 sequence: T1 sequence with G71A, A91R

T9: human LAG-3 domain 1-2 Fc fusion, point mutation #41 P94A (human, UniProt P18627 23-266)
T9 construct: not shown: human IgG1 Fc, AA P101-K330
T9 sequence: T1 sequence with P72A, A91R

B1: Fab fragment of antibody 15011 (Fab, V domains shown, not shown: a dimerising Fc or GST)
VH: EVQLLESGGGLVQPGGSLRLSCAASGFDFRSYAMMWVRQAPGKGLEWVGGINGEVGGSNTYYAPAVKGRATISRDNSKNTLYLQMNSLRAEDTAVYYCVKGAGACGICNDDIDAWGQGTLVTVSS
VL: SYELTQDPAVSVALGQTVRITCSGAGSYAGSYYYGWHQQKPGQAPVTVIYDNDKRPSNIPDRFSGSSSGNTASLTITGAQAEDEADYYCGSTNDNDDGGLFGSGTKVTVLG
notes: monomeric Fab made by GingisKHAN digestion of the IgG1
B2: Fab fragment of antibody 15532 (Fab, V domains shown, not shown: a dimerising Fc or GST)
VH: QVQLQQWGAGLLRPSETLSLTCAVYGESFSGYYWNWIRQPPGKGLEWIGEINHSGSTNYNPSLKSRVTISVDTSKTQFSLKLSSVTAADTAVYYCARGWDLLDWNDYWNEYWGQGTLVTVSS
VL: EIVLTQSPATLSLSPGERATLSCRASQSVSSYLAWYQQKPGQAPRLLIYDASNRATGIPARFSGSGSGTDFTLTISSLEPEDFAVYYCQQRSNWPLTFGGGTKVEIKR
notes: as for B1
B3: Fab fragment of antibody 15431 (Fab, V domains shown, not shown: a dimerising Fc or GST)
VH: QVQLQQSGPGLVKPSQTLSLTCAISGDSVSSNSAAWNWIRQSPSRGLEWLGRTYYRSKWYNDYAVSVKSRITINPDTSKNQFSLQLNSVTPEDTAVYYCARDDDWNDFDYWGQGTLVTVSS
VL: B2 VL
notes: as for B1
B4: Fab fragment of antibody 15572 (Fab, V domains shown, not shown: a dimerising Fc or GST)
VH: QLQLQESGPGLVKPSETLSLTCTVSGDSISSSSYYWGWIRQPPGKGLEWIGSIFYSGNTYYNPSLKSRVTISVDTSKNQFSLKLSSVTAADTAVYYCAREDDFLTDYYGAFDIWGQGTMVTVSS
VL: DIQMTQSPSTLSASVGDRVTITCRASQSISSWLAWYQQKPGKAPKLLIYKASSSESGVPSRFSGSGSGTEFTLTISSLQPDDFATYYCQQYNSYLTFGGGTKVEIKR
notes: as for B1

Target: T1, human LAG-3 domain 1-2 Fc fusion, point …
Experiment: SPR, Fab over captured mutant LAG-3-Fc;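 note: fc fusion variants captured on anti-human IgG Fc sensor, Fab injected with association then dissociation phases, KD obtained from Langmuir one-to-one fit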

| KD mutant/KD wild type | Binder |
| --- | --- |
| 3.3 fold | B1 |
| 0.6 fold | B2 |
| 0.9 fold | B3 |
| 0.7 fold | B4 |

Target: T2, human LAG-3 domain 1-2 Fc fusion, point …
Experiment: SPR, Fab over captured mutant LAG-3-Fc;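 note: fc fusion variants captured on anti-human IgG Fc sensor, Fab injected with association then dissociation phases, KD obtained from Langmuir one-to-one fit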

| KD mutant/KD wild type | Binder |
| --- | --- |
| 1.2 fold | B1 |
| 0.7 fold | B2 |
| 1 fold | B3 |
| 0.9 fold | B4 |

Target: T3, human LAG-3 domain 1-2 Fc fusion, point …
Experiment: SPR, Fab over captured mutant LAG-3-Fc;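 note: fc fusion variants captured on anti-human IgG Fc sensor, Fab injected with association then dissociation phases, KD obtained from Langmuir one-to-one fit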

| KD mutant/KD wild type | binding result | Binder |
| --- | --- | --- |
| 0.6 fold |  | B1 |
| 3.6 fold |  | B2 |
|  | no binding (tested: 300 nM) | B3 |
|  | no binding (tested: 300 nM) | B4 |

Target: T4, human LAG-3 domain 1-2 Fc fusion, point …
Experiment: SPR, Fab over captured mutant LAG-3-Fc;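 note: fc fusion variants captured on anti-human IgG Fc sensor, Fab injected with association then dissociation phases, KD obtained from Langmuir one-to-one fit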

| KD mutant/KD wild type | Binder |
| --- | --- |
| 1.1 fold | B1 |
| 0.7 fold | B2 |
| 1 fold | B3 |
| 0.9 fold | B4 |

Target: T5, human LAG-3 domain 1-2 Fc fusion, point …
Experiment: SPR, Fab over captured mutant LAG-3-Fc

| KD mutant/KD wild type | Binder |
| --- | --- |
| 0.8 fold | B1 |
| 0.9 fold | B2 |
| 0.7 fold | B3 |
| 0.6 fold | B4 |

Target: T6, human LAG-3 domain 1-2 Fc fusion, point …
Experiment: SPR, Fab over captured mutant LAG-3-Fc

| KD mutant/KD wild type | Binder |
| --- | --- |
| 1.7 fold | B1 |
| 0.8 fold | B2 |
| 1.2 fold | B3 |
| 0.8 fold | B4 |

Target: T7, human LAG-3 domain 1-2 Fc fusion, point …
Experiment: SPR, Fab over captured mutant LAG-3-Fc

| KD mutant/KD wild type | binding result | Binder |
| --- | --- | --- |
| 0.5 fold |  | B1 |
| 3.8 fold |  | B2 |
|  | no binding (tested: 300 nM) | B3 |
|  | no binding (tested: 300 nM) | B4 |

Target: T8, human LAG-3 domain 1-2 Fc fusion, point …
Experiment: SPR, Fab over captured mutant LAG-3-Fc

| KD mutant/KD wild type | Binder |
| --- | --- |
| 1 fold | B1 |
| 7.1 fold | B2 |
| 11.6 fold | B3 |
| 0.8 fold | B4 |

Target: T9, human LAG-3 domain 1-2 Fc fusion, point …
Experiment: SPR, Fab over captured mutant LAG-3-Fc

| KD mutant/KD wild type | binding result | Binder |
| --- | --- | --- |
| 0.7 fold |  | B1 |
| 0.8 fold |  | B2 |
|  | no binding (tested: 300 nM) | B3 |
| 0.6 fold |  | B4 |
